According to patent publication US20230406912A1, “HUMANISED ANTIBODIES AGAINST PATHOGENIC FUNGI” (priority 2020, published 2023):

Legend:
C. auris [1] = test: EUCAST antifungal MIC assay, drug alone and combined with hmAb 2G8; assay type: cell-based; conditions: Candidozyma auris; 48 hours, drug alone; read-out: MIC50
Method: To evaluate the susceptibility of C. auris to caspofungin, amphotericin B and their combination with hmAb 2G8, we followed the EUCAST antifungal MIC method (EUCAST E.DEF. 7.3). Antifungal drugs were purchased from Sigma-Aldrich.
The caspofungin and amphotericin B range concentrations analysed were reported in EUCAST document. Those concentrations were tested alone and in combination with 0.25, 2.5, 25 and 250 μg/ml of humanised antibody.
The plates microdilution and the yeast inoculum were prepared as reported in EUCAST document. The wells with 100 μl of 2X final antifungal drugs concentration in RPMI 2% G medium were inoculated with 100 μl (1-5×10^5 CFU/ml) of yeast suspension of C. auris. The monoclonal antibody was added to the samples of yeast suspension to test the combination drug-antibody. The plates were incubated at 37° C. for 24 and 48 hours and read after incubation at 405 nm. The assays were performed in triplicate.
As reported in EUCAST, echinocandins' MIC50 is the lowest drug concentration giving inhibition of≥50% of that of the drug-free control (dotted line). For amphotericin B, MIC50 is the same as for echinocandins while MIC90 is considered as the lowest concentration giving a growth inhibition of≥90% of that of the drug-free control (dotted bold line). […] At 48 hours (D), amphotericin B alone has its MIC50 and 90 at 1 μg/ml.

C. auris [2] = test: Time-kill curve, drug alone and combined with hmAb 2G8; assay type: cell-based
Text: To support and deepen the data coming from MIC assays, a time-kill curve was elaborated to evaluate how the hmAb 2G8 combined with caspofungin or amphotericin B could improve their basal activity on C. auris.

C. auris [3] = conditions: different C. auris strains, literature; cited from earlier work
[4] = ELISA assay on laminarin-coated plates; assay type: binding; conditions: for Abs 405 nm: ELISA of supernatants of humanised mAbs; for activity in ELISA test: recombinant antibody, laminarin-coated plates
Method: The activity of the purified antibody was then tested by ELISA assay. 96-well plates were coated with 50 μg/ml Laminarin (Sigma-Aldrich, L9634) in 0.05 M carbonate buffer pH 9.6 overnight at 4° C. Nonspecific interactions were blocked with 100 μL/well blocking solution, 3% (w/v) BSA in PBS-Tween 20 (8 g/L NaCl, 0.2 g/L KH2PO4, 2.9 g/L Na2HPO4·12 H2O, 0.2 g/L KCI, 0.05% (v/v) Tween 20, pH 7.4) at 37° C. for 1 h. The plates were then incubated with decreasing concentrations of hmAb 2G8_first approach (comparative purpose) (from 3.12 μg/ml to 0.003 μg/ml, each concentration was tested in triplicate) in blocking solution for 2 h at 37° C. At the same temperature and for the same time, 100 μL Goat anti-human-HRP diluted 1:1000 in blocking solution was poured in each well. After every single passage the plates were washed 5 times with PBS-Tween 20. To reveal the binding, 100 μl of 5 mg-ABTS tablet (Roche Diagnostics) dissolved in 12 ml of sodium citrate (0.05 M, pH 3) and supplemented with 1:1000 dilution hydrogen peroxide (Carlo Erba) was added and after 15, 30, 45 and 60 min the absorbance at 405 nm was measured. For the whole measuring time the plates were left in the dark. IC50 analysis of ELISA test was performed with Prism. The TEST was performed in triplicate.
The surnatants collected from the obtained humanised mAb were tested in ELISA test.
Four supernatants from hmAb according to the invention (H5/K3; H5/K1; H5/K7; H5/K5) were purified to confirm the data. 8 scalar dilutions, starting from 5 μg/ml, were tested.
The purified humanised mAb 2G8 H5/K1 was then tested in an ELISA assay using laminarin as a target.

Row | Molecule | Abs 405 nm [4] | activity in ELISA test [4] | also measured
1 | CC[C@H](C)C[C@H](C)CCCCCCCCC(=O)N[C@H]1C[C@@H](O)[C@@H](NCCN)NC(=O)[C@@H]2[C@@H](O)CCN2C(=O)[C@H]([C@H](O)CCN)NC(=O)[C@H]([C@H](O)[C@@H](O)c2ccc(O)cc2)NC(=O)[C@@H]2C[C@@H](O)CN2C(=O)[C@H]([C@@H](C)O)NC1=O [caspofungin] | – | – | MIC50 (C. auris [1]): 0.25 mg/L; fungistatic effect, log (time-kill curve) (C. auris [2]; CAS 0.125 μg/ml, 24 h): −1.88; fungistatic effect, log (time-kill curve) (C. auris [2]; CAS 0.125 μg/ml, 48 h): −2.10; fungistatic effect, log (time-kill curve) (C. auris [2]; CAS 0.25 μg/ml, 24 h, combination with 250 μg/ml hmAb 2G8 H5K1): −1.11; fungistatic effect, log (time-kill curve) (C. auris [2]; CAS 0.25 μg/ml, 48 h, combination with 250 μg/ml hmAb 2G8 H5K1): −1.71
2 | C[C@@H](c1ncncc1F)[C@](O)(Cn1cncn1)c1ccc(F)cc1F [voriconazole] | – | – | MIC (C. auris [3]): about 16 mg/L
3 | H1 K1: humanised mAb, first approach CDR-grafting; VH H1 (SEQ ID NO: 16), VL K1 (SEQ ID NO: 15) (antibody, V domains shown, VH-H1; VL-K1) VH: QVQLVQSGAEVKKPGASVKVSCKASGYTLSSYWMHWVRQAPGQGLEWMGIILPGSGSTSYAQKFQGRVTMTRDTSTSTVYMELSSLRSEDTAVYYCAREGWYFDVWGAGTTVTVSS VL: DVVMTQSPLSLPVTLGQPASISCRSSQSLLYSNGNTHLNWFQQRPGQSPRRLIYLVSNRDSGVPDRFSGSGSGTDFTLKISRVEAEDVGVYYCVQGTHFPYTFGGGTKLEIK | 0.35 | not active | –
4 | H3/K3: humanised recombinant Ab, second approach; VH H3 (SEQ ID NO: 20), VL K3 (SEQ ID NO: 19) (antibody, V domains shown, VH-H3; VL-K3) VH: QVQLVQSGAEVKKPGASVKVSCKASGYTLSSYWIHWVRQAPGQGLEWIGWILPGSGSTNYAQKFQGKATITADKSTSTAYMELSSLRSEDTAVYYCAREGWYFDVWGQGTLVTVSS VL: DIVMTQTPLSLSVTPGQPASISCKSSQSLLYSNGNTHLNWYLQRPGQSPQLLIYLVSNRASGVPDRFTGSGSGTDFTLKISRVEAEDVGVYYCVQGTHFPYTFGGGTKVEIK | – | not active | –
5 | H5 K5: humanised mAb, third approach (Kabat); VH H5 (SEQ ID NO: 22), VL K5 (SEQ ID NO: 21) (antibody, V domains shown, VH-H5; VL-K5) VH: QVQLQQSGAELKKPGASVKISCKASGYTLSSYWLEWVRQRPGQGLEWIGEILPGSGSTNYNEKFKGRATFTADTSTNTAYMELSSLTSEDSAVYYCAREGWYFDVWGQGTTVTVSS VL: DIVMTQSPLSLPVTLGQPASISCKSSQSLLYSNGNTHLNWYQQRPGQSPRRLIYLVSKLDSGVPDRFSGSGSGTDFTLKISRVEAEDVGVYYCVQGTHFPYTFGGGTKLEIK | 1.61 | showed some activity | activity / affinity compared with murine 2G8 ([4]; ELISA): lower than the activity observed for the murine 2G8
6 | H6 K1: humanised mAb combining heavy chain H6 (SEQ ID NO: 24) and light chain K1 (SEQ ID NO: 15) (antibody, V domains shown, VH-H6; VL-K1) VH: QVQLQQSGAELKKPGASVKISCKASGYTLSSYWIHWVRQRPGQGLEWIGEILPGSGSTNYNEKFKGRATFTADTSTNTAYMELSSLTSEDSAVYYCAREGWYFDVWGQGTTVTVSS VL: DVVMTQSPLSLPVTLGQPASISCRSSQSLLYSNGNTHLNWFQQRPGQSPRRLIYLVSNRDSGVPDRFSGSGSGTDFTLKISRVEAEDVGVYYCVQGTHFPYTFGGGTKLEIK | 0.27 | – | –
7 | H3 K1: humanised mAb combining heavy chain H3 (SEQ ID NO: 20) and light chain K1 (SEQ ID NO: 15) (antibody, V domains shown, VH-H3; VL-K1) VH: QVQLVQSGAEVKKPGASVKVSCKASGYTLSSYWIHWVRQAPGQGLEWIGWILPGSGSTNYAQKFQGKATITADKSTSTAYMELSSLRSEDTAVYYCAREGWYFDVWGQGTLVTVSS VL: DVVMTQSPLSLPVTLGQPASISCRSSQSLLYSNGNTHLNWFQQRPGQSPRRLIYLVSNRDSGVPDRFSGSGSGTDFTLKISRVEAEDVGVYYCVQGTHFPYTFGGGTKLEIK | 0.4 | – | –
8 | H5 K3: humanised mAb combining heavy chain H5 (SEQ ID NO: 22) and light chain K3 (SEQ ID NO: 19) (antibody, V domains shown, VH-H5; VL-K3) VH: QVQLQQSGAELKKPGASVKISCKASGYTLSSYWLEWVRQRPGQGLEWIGEILPGSGSTNYNEKFKGRATFTADTSTNTAYMELSSLTSEDSAVYYCAREGWYFDVWGQGTTVTVSS VL: DIVMTQTPLSLSVTPGQPASISCKSSQSLLYSNGNTHLNWYLQRPGQSPQLLIYLVSNRASGVPDRFTGSGSGTDFTLKISRVEAEDVGVYYCVQGTHFPYTFGGGTKVEIK | 2.47 | – | –
9 | H5 K7: humanised mAb combining heavy chain H5 (SEQ ID NO: 22) and light chain K7 (SEQ ID NO: 25) (antibody, V domains shown, VH-H5; VL-K7) VH: QVQLQQSGAELKKPGASVKISCKASGYTLSSYWLEWVRQRPGQGLEWIGEILPGSGSTNYNEKFKGRATFTADTSTNTAYMELSSLTSEDSAVYYCAREGWYFDVWGQGTTVTVSS VL: DIVMTQSPLSLPVTLGQPASISCKSSQSLLYSNGNTHLNWYLQRPGQSPKRLIYLVSKLDSGVPDRFSGSGSGTDFTLKISRVEAEDVGVYYCVQGTHFPYTFGGGTKLEIK | 0.82 | – | –
